Data published in PMC4299599, “Quantification of cytosolic interactions identifies Ede1 oligomers as key organizers of endocytosis” (Molecular Systems Biology, 2014).

Columns and labels:
[1] = biological target: Las17 polyproline motif (Saccharomyces cerevisiae) (UniProt Q12446); conditions: cited from earlier work
Apl3 = biological target: T1, Apl3 (S. cerevisiae, UniProt P38065 1-1025); test: fluorescence cross-correlation spectroscopy (FCCS); in the cytoplasm of living yeast cells; first-named protein green (3myeGFP or 1myeGFP; eGFP for Don1), second red (3mCherry); self-interaction in diploid strains with one allele of each colour; apparent or effective KD (Kdeff) from single-cell measurements; only Kdeff values < 1000 nM are shown; values for self-interactions are upper limits; conditions: partners not purified
T1 construct: Apl3, subunit of the AP2 complex, S. cerevisiae; also called Apl3-3myeGFP; Apl3-3mCherry; source: chromosomally tagged at the endogenous locus, in the cytoplasm of living S. cerevisiae cells
T1 sequence (looked up): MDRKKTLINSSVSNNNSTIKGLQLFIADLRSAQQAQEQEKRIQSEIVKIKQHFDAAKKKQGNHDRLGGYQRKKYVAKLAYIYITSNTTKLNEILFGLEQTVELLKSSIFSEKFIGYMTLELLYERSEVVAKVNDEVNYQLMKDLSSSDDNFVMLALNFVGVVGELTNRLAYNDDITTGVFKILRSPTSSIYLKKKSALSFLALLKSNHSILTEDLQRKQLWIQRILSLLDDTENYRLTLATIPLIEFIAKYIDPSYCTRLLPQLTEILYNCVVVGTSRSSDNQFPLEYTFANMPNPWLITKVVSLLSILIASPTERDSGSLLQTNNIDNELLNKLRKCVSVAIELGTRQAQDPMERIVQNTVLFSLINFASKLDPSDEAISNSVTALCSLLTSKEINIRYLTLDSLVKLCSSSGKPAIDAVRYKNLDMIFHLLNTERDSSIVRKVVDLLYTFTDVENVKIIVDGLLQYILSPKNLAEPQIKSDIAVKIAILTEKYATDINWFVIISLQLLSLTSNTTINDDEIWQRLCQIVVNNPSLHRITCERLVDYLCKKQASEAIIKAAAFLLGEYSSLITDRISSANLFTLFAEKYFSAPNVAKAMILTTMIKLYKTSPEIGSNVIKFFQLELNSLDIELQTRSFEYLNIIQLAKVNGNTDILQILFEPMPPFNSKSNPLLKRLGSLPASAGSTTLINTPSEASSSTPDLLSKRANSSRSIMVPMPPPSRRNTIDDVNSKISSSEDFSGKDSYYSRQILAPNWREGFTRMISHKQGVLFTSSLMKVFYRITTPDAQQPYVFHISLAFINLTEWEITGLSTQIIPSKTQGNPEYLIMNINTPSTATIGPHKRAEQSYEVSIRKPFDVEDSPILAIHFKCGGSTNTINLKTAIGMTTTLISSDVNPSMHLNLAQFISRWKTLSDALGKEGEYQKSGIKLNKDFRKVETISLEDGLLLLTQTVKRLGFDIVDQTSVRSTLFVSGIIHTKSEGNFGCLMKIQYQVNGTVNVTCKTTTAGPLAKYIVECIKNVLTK

[2] = biological target: T2, Ede1 (Ede1-3myeGFP / Ede1-3mCherry) (S. cerevisiae, UniProt P34216 1-1381); test: fluorescence cross-correlation spectroscopy (FCCS); living yeast cells, observation volume in the cytoplasm; one protein tagged with (3)myeGFP/eGFP and the other with 3mCherry in the same strain; apparent (effective) KD; interactions up to ~1 μM detectable; conditions: partners not purified
T2 construct: Ede1, S. cerevisiae, homolog of mammalian Eps15; expressed from its own locus; also called wild-type Ede1; full-length Ede1; source: S. cerevisiae, chromosomally tagged at the endogenous locus, in living cells; not shown: 3myeGFP, C-terminal, kept; 3mCherry, C-terminal, kept
T2 sequence (looked up): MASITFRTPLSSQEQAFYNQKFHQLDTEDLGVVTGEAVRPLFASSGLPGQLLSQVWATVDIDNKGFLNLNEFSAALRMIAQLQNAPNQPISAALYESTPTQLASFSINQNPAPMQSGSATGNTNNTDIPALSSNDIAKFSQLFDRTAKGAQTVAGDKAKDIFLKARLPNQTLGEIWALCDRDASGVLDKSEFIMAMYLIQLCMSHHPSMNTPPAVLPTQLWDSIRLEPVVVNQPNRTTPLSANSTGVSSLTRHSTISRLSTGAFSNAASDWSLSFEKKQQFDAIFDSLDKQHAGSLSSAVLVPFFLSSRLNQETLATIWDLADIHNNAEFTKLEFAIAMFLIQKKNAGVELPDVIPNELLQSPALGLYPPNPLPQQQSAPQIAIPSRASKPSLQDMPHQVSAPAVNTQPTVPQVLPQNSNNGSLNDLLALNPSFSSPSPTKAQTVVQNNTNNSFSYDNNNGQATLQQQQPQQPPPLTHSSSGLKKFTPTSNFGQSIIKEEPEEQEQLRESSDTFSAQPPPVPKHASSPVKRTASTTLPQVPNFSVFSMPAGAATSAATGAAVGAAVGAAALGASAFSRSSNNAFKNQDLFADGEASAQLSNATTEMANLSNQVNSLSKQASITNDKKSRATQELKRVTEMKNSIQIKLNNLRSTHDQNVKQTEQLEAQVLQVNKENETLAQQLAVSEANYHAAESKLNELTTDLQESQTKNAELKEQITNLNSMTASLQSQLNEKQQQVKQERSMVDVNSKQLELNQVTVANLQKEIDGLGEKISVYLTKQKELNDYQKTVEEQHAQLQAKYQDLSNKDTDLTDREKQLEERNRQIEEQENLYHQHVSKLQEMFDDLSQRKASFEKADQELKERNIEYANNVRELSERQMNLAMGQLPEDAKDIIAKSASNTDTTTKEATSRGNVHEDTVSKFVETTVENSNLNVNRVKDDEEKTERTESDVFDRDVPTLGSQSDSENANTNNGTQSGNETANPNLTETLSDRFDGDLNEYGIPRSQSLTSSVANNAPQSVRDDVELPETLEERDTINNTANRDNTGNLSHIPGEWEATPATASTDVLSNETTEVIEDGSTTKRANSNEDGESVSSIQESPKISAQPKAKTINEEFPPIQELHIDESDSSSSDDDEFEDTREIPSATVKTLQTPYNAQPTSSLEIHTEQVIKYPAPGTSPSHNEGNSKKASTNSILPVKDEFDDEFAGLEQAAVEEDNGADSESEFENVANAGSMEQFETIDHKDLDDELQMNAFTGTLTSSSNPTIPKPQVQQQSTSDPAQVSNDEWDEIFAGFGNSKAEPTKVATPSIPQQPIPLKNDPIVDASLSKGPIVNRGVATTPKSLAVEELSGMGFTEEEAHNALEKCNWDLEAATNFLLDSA

[3] = biological target: the molecule itself; test: FCS molecular brightness (counts per particle per second); living yeast cells, cytoplasm; brightness of GFP-tagged particles compared with 3myeGFP and Ent2-3myeGFP (monomers) or with wild-type Ede1; average of all particles

In the case of Sla1 SH3 domains (from UniProt P32790), the Kd [1] is listed as 56 nM.

B1: Apl1 (natural protein, S. cerevisiae, UniProt P27351 1-700, looked up)
chain: MSDQKVFARYKANEIVTDLQHFGVKKFKSNITRRKNALRKIIANLVLGNYGEMSVLFSELLKFWQIEDDLEVKRICHEYIRVIGALKPQQAREALPFIMDDFKSRDEKLQIMALRTLVLVPVKELSDQAFDCIISLVNHKSPPEQVTRTAIYALLDLDEIDHERVLGLSSILHDIVKAQSSSPEVIVAALHTLYSIHEKNANMEPFRIPLELAFDMLELLPELNEWNKATVLEVLTTSVVPQHYLDTHEMIELALPYLQQVNTYVVLNSLKFIMYLLNYVDVIKETLAEKLSNSVIALLDKPPELQFLVLRNVILLLLSRESSLLRLDISYFFIEYNDPIYIKDTKLECLYLLANKETLPRILEELEQYATDIDIQMSRKSVRAIGNLAVKLDEDSVHDCVAVLLDLLEFGVDYVVQEIISVFRNILRKYPNNFKANVTELVKHTEVVQEPESKNAMIWIITQYSDVIPNYLELFRVFSSNMFSETLEVQFSILNSAIKFFIRSPTKETEELCMDLLKGCIDHENNPDLRDKTLMYWRLLSLTKTSRISNAITFESLKSVLDGELPLIEMNTKLDPTVLEELELNIGTIVSIYLKPVSHIFRLNKTKLLPQSPILNPNKDLLPVVGNSFPPTGANRDRQNSESQSSTKSRKTAMMDDYDKPAEKINQLKGKRKSSSNNPSKLSRKPSTLLRKLSMKRPFS
notes: Apl1, subunit of the AP2 complex, S. cerevisiae; also called Apl1-1myeGFP; Apl1-3mCherry; source: chromosomally tagged at the endogenous locus, in the cytoplasm of living S. cerevisiae cells
B1 gave a Kd (Apl3) of 37 nM.

B2: Sla2 (natural protein, S. cerevisiae, UniProt P33338 1-968, looked up)
chain: MSRIDSDLQKALKKACSVEETAPKRKHVRACIVYTWDHQSSKAVFTTLKTLPLANDEVQLFKMLIVLHKIIQEGHPSALAEAIRDRDWIRSLGRVHSGGSSYSKLIREYVRYLVLKLDFHAHHRGFNNGTFEYEEYVSLVSVSDPDEGYETILDLMSLQDSLDEFSQIIFASIQSERRNTECKISALIPLIAESYGIYKFITSMLRAMHRQLNDAEGDAALQPLKERYELQHARLFEFYADCSSVKYLTTLVTIPKLPVDAPDVFLINDVDESKEIKFKKREPSVTPARTPARTPTPTPPVVAEPAISPRPVSQRTTSTPTGYLQTMPTGATTGMMIPTATGAANAIFPQATAQMQPDFWANQQAQFANEQNRLEQERVQQLQQQQAQQELFQQQLQKAQQDMMNMQLQQQNQHQNDLIALTNQYEKDQALLQQYDQRVQQLESEITTMDSTASKQLANKDEQLTALQDQLDVWERKYESLAKLYSQLRQEHLNLLPRFKKLQLKVNSAQESIQKKEQLEHKLKQKDLQMAELVKDRDRARLELERSINNAEADSAAATAAAETMTQDKMNPILDAILESGINTIQESVYNLDSPLSWSGPLTPPTFLLSLLESTSENATEFATSFNNLIVDGLAHGDQTEVIHCVSDFSTSMATLVTNSKAYAVTTLPQEQSDQILTLVKRCAREAQYFFEDLMSENLNQVGDEEKTDIVINANVDMQEKLQELSLAIEPLLNIQSVKSNKETNPHSELVATADKIVKSSEHLRVDVPKPLLSLALMIIDAVVALVKAAIQCQNEIATTTSIPLNQFYLKNSRWTEGLISAAKAVAGATNVLITTASKLITSEDNENTSPEQFIVASKEVAASTIQLVAASRVKTSIHSKAQDKLEHCSKDVTDACRSLGNHVMGMIEDDHSTSQQQQPLDFTSEHTLKTAEMEQQVEILKLEQSLSNARKRLGEIRRHAYYNQDDD
notes: Sla2, S. cerevisiae; Each copy carries one of the two tags; also called Sla2-3myeGFP; source: S. cerevisiae, chromosomally tagged at the endogenous locus, in living cells; not shown: 3myeGFP, C-terminal, kept; 3mCherry, C-terminal, kept
In the case of B2, the Kd [2] is reported as 590 nM and the “molecular brightness per particle relative to 3myeGFP” value [3] is reported as 2 fold.

B3: Syp1 (natural protein, S. cerevisiae, UniProt P25623 1-870, looked up)
chain: MTEQRTKYADSILTTKSPYEATETIRIRLSQVKLLNKDFYLLFKELANLKRNYAQQLRKIIAENEDITKILNAQMIESNVLTPQEMSAFRFNSLGELRNVWDTVIEELKSDLKSSTEYYNTLDQQVVRELKESVENNTSWRESKDLHSKLSKNAASIEHYSKNNENSSHLEEARRQWDQQSPYLFELFETIDYNRLDTLKNCMLRFQTSFSDYLLNTTKECETVMTKFLAFEPQSEIDRFAKDASQYNFQLSSSSKEVVPNNASPASATGARPVSVSNGAANTEREKKSPQKDKRKSAFGNIGHRLASASSSLTHNDLMNNEFSDSTNNSSLKSKKSSHTLRSKVGSIFGRNKTKNKRQQQSSSNSHIQASITETPNNSSTRVSSTATSSIYQKQRRPTYSSSKSNNWTPGEASDTPPLPPHATPKNVDAPVTADTPPAQTFTPSEVPPSTPQQSSPPTAKEPDSSNLPKTVPISISQPPLQPQSKTKPLPVEPASPSISLPTATVDNQPSGQVDSRPLHIRAPALPPSRKQNFIHNRDSQLYDSLPNHGSGATPTSSSLSSIPQERPVSTLSSQITGELRELNPQATGSSTSLVGQSLFQHSSLDTSQFGLNASIAEVLNASFKDGMLQNSQLIGEIALNYLPNSVMNSPLPIGINLRINNGAKFEKVILNQAFIERVAPEEFKVNPSFIDSRTLGAIKYSIKEPIAPIVIHPVWRFESHQASVVLTVKMSPSLPDEISQIVIEDLVVFVNIDGANATSALSKPQGSFSKEKKRITWRFKEPVVLTRNGEGQRLIARFITDGLAHESAKGVITKFTISETDNVALPHSGAGSGITLTCQELDENNPFGGEWLDVNTKRTLTTGNYHGLA
notes: Syp1, S. cerevisiae endocytic adaptor; Each copy carries one of the two tags; also called Syp1-3myeGFP; source: S. cerevisiae, chromosomally tagged at the endogenous locus, in living cells; not shown: 3myeGFP, C-terminal, kept; 3mCherry, C-terminal, kept
With B3 the Kd [2] was 227 nM.
